Test results as given in patent JP2023110925A.

Biological target: ペプチド13(Aβのaa 13-21) (UniProt P05067)
Experiment: ELISA on biotinylated peptides (Mimotopes format)

percent higher affinity than for whole Aβ1-42 protein: 36%
B1: ヒト化抗ヒトアミロイドβモノクローナル抗体hC2 (antibody, human IgG4 S228P, kappa, V domains shown)
VH: EVQLVESGGGLVQPGGSLRLSCAASGFTFSSYGMSWVRQAPGKGLELVASINSNGGSTYYPDSVKGRFTISRDNAKNSLYLQMNSLRAEDTAVYYCASGDYWGQGTTVTVSS
VL: DIVMTQSPLSLPVTPGEPASISCRSSQSLVYSNGDTYLHWYLQKPGQSPQLLIYKVSNRFSGVPDRFSGSGSGTDFTLKISRVEAEDVGVYYCSQSTHVPWTFGQGTKVEIKR
